Test results as given in patent publication US7906616B2, “Truncated DANCE, DANCE complex and method of using these” (Kansai Medical University, priority 2004, dated 2011).

Key:
[1] = target: T1, human DANCE (Homo sapiens, UniProt Q9UBX5); assay: In vitro binding assay, FLAG-tagged DANCE constructs with Myc-tagged DANCE; details: protein solutions from 293T cells mixed on ice 1 hour, anti-FLAG precipitation, anti-Myc detection
T1 construct: Myc; expressed in transfected cells; host or cells: 293T cells; culture supernatant mixed with cell extract
T1 sequence (Q9UBX5 24-448): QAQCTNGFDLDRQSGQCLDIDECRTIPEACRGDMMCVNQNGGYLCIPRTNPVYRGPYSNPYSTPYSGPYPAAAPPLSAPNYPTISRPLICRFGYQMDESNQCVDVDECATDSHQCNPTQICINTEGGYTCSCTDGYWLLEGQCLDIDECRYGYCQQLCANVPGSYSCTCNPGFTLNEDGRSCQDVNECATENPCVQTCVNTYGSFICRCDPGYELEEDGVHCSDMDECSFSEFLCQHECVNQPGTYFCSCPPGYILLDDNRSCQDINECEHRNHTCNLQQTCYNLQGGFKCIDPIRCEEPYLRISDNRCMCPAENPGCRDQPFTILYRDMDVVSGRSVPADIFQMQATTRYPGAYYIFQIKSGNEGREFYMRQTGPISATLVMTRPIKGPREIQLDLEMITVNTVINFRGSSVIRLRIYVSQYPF
Experimental: (§1) These were performed by methods described in “Molecular Cloning, 3rd Ed.”.
(§2) A human DANCE construct with FLAG tag (FIG. 8), a human DANCE construct with Myc tag, and a human LTBP2 construct were separately transfected to 293T cells. After cultivation in serum-free medium for 48 hours, each culture supernatant and cell extract were mixed, and this was used as the protein solution. A protein solution from the DANCE construct with FLAG tag and a protein solution from DANCE or LTBP2 with Myc tag were mixed on ice for 1 hour, and precipitated with anti-FLAG antibody, and the resulting precipitate was developed by SDS-PAGE, and detected using anti-Myc antibody or anti-FLAG antibody.

[2] = system: vascular endothelial cells; assay: Vascular endothelial cell adhesion assay; assay type: cell-based
Excerpt: Full-length DANCE promotes the adhesion and extension of vascular endothelial cells via cell surface integrin. The present inventor has reported to date that full-length DANCE can serve as a ligand for the integrins αvβ3, αvβ5, and α9β1. Since the domain serving as the ligand is considered to be around the RGD motif of the amino-terminal domain of DANCE, each recombinant protein of a DANCE mutant wherein RGD was replaced with RGE for one-amino-acid substitution (RGE DANCE), and amino-terminal cleaved form of DANCE (ΔND DANCE) were purified, and these, along with full-length DANCE, were subjected to vascular endothelial cell adhesion assay (FIG. 13).

[3] = target: T2, human LTBP2 (Homo sapiens, UniProt Q14767); assay: In vitro binding assay, FLAG-tagged DANCE constructs with Myc-tagged LTBP2; details: protein solutions from 293T cells mixed on ice 1 hour, anti-FLAG precipitation, anti-Myc detection
T2 construct: The portion from the 36th amino acid to the stop codon of human LTBP2; expressed in transfected cells; host or cells: 293T cells; culture supernatant mixed with cell extract
Experimental: as §1, §2

[4] = system: human skin fibroblasts; assay: Formation of elastic fibers in cultured human skin fibroblasts; assay type: cell-based; details: protein added to serum-free medium at 4 μg/ml, cultured for 2 weeks
Experimental: Human fibroblasts were kindly supplied by the Department of Plastic Surgery, Kyoto University Hospital. A cover glass was placed on the bottom of a 24-well plate, on which human fibroblasts were seeded at 7.5×10^4 cells per well, and cultured in a DMEM medium supplemented with 10% FBS at 37° C. in the presence of 5% CO2. After the plate washed with PBS on Day 3, the medium was exchanged with a DMEM/F12 medium not supplemented with FBS, and purified DANCE protein, cleaved form of DANCE protein 4 μg/ml, or FBS was added. Cultivation was continued at 37° C. in the presence of 5% CO2, and the cells were fixed and immunologically stained on Day 14.
On Day 14 of cultivation, the cells were washed with 1 ml of PBS three times, after which they were fixed with 100% methanol at −20° C. for 30 minutes. After washing with PBS, the cells were subjected to blocking with a PBS containing 2% BSA at room temperature for 30 minutes, after which the cells were incubated with the polyclonal anti-elastin antibody (dilution rate 1/100) and the monoclonal anti-FLAG antibody (dilution rate 1/100) at room temperature for at least 1 hour. The cells were washed with PBS and further incubated with the anti-rabbit Alexa Fluor 488 antibody (dilution rate 1/100) and the anti-mouse Alexa Fluor 546 antibody (dilution rate 1/100) at room temperature for 1 hour. After washing with PBS, the cells were fixed with 4% para-formaldehyde at room temperature for 10 minutes and again washed with PBS, after which the sample was mounted onto a glass slide using a DAPI-containing Vectashield. Examination was performed using a confocal microscope.
Human skin fibroblasts were seeded to reach confluency; the medium was replaced with serum-free medium or a medium containing 10% fetal calf serum; the cells were cultured for 2 weeks; the formation of elastic fibers was analyzed by immunostaining with anti-elastin antibody.

T2 sequence (Q14767 36-1821): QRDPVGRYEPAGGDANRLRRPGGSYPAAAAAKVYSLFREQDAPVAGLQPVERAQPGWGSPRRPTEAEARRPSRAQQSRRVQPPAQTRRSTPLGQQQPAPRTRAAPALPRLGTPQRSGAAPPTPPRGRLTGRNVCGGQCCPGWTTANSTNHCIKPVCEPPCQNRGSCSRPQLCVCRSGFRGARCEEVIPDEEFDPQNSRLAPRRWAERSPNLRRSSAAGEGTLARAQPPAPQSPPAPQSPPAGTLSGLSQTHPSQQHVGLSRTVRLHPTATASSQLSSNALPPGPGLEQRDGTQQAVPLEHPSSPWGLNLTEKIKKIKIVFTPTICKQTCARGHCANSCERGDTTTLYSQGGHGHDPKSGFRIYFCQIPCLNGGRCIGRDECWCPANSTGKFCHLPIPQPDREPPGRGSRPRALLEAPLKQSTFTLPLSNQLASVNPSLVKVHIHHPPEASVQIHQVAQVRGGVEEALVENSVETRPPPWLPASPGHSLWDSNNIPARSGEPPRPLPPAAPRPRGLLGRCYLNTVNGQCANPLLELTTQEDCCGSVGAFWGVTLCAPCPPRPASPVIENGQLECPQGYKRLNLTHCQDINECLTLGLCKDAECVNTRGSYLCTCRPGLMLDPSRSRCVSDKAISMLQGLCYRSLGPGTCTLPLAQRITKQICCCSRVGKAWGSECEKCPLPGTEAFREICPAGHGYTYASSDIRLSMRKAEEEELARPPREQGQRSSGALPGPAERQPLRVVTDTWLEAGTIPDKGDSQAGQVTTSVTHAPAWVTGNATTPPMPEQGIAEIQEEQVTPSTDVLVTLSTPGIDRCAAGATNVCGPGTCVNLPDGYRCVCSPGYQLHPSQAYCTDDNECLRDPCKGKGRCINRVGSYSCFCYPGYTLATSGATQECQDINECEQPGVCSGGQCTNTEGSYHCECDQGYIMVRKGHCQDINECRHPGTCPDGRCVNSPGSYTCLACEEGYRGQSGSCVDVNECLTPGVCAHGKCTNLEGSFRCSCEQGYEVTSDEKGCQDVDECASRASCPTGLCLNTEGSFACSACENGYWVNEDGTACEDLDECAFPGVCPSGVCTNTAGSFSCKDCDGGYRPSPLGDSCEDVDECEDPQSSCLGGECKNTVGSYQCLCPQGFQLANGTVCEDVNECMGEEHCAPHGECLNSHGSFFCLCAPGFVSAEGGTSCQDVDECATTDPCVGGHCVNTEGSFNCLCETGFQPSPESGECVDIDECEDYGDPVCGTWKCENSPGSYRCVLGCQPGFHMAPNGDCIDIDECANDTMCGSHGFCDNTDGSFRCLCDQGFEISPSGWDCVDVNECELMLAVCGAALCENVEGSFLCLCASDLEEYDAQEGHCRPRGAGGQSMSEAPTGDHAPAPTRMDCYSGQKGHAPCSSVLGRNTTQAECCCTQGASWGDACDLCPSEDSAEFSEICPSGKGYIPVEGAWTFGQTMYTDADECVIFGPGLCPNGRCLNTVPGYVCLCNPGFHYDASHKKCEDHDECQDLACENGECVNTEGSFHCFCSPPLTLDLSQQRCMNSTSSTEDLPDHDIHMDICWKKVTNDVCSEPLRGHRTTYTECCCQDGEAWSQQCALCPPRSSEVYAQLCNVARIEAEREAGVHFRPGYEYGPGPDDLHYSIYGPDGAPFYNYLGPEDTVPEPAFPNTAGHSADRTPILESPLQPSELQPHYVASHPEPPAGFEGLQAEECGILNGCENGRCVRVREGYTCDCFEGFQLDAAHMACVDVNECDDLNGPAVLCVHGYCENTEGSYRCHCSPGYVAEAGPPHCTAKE

binding of DANCE to each other [1]: no longer binds to each other
B1: ΔND DANCE: amino-terminal cleaved form of DANCE; 78th to 448th amino acids of SEQ ID NO:2 (SEQ ID NO:8) (protein, listed as Homo sapiens)
chain: GPYSNPYSTPYSGPYPAAAPPLSAPNYPTISRPLICRFGYQMDESNQCVDVDECATDSHQCNPTQICINTEGGYTCSCTDGYWLLEGQCLDIDECRYGYCQQLCANVPGSYSCTCNPGFTLNEDGRSCQDVNECATENPCVQTCVNTYGSFICRCDPGYELEEDGVHCSDMDECSFSEFLCQHECVNQPGTYFCSCPPGYILLDDNRSCQDINECEHRNHTCNLQQTCYNLQGGFKCIDPIRCEEPYLRISDNRCMCPAENPGCRDQPFTILYRDMDVVSGRSVPADIFQMQATTRYPGAYYIFQIKSGNEGREFYMRQTGPISATLVMTRPIKGPREIQLDLEMITVNTVINFRGSSVIRLRIYVSQYPF
binding to cell surface integrin ([2]; discussion statement): no longer binds to cell surface integrin | cell adhesion activity ([2]; purified recombinant protein used for coating): absolutely no cell adhesion activity | binding of DANCE to LTBP2 [3]: stronger binding with LTBP2 than full-length DANCE | formation of elastic fibers (anti-elastin immunostaining) [4]: the formation of elastic fibers was very little
